The results in this text go back to patent publication US20150344570A1 (published 2015).

One experiment addresses T1, FcγRIIIa (human, UniProt P08637 17-208).
T1 construct: extracellular domain; also called FcgRIIIa; 3a
The experiment in a line: SPR (Biacore), relative binding. A general note: Surface plasmon resonance follows binding to a sensor surface in real time, without labels.

The next experiment concerns the target T2, FcγRIIb (human, UniProt P31994 43-217).
T2 construct: extracellular domain; also called FcgRIIb; 2b
T2 sequence (looked up): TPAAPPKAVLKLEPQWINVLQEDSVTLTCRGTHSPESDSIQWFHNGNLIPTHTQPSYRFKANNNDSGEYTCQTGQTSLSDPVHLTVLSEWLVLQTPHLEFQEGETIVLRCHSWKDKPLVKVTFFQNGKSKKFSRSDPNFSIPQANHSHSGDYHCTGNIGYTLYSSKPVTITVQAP
The experiment in a line: SPR (Biacore), relative binding.

T1 sequence (P08637 17-208): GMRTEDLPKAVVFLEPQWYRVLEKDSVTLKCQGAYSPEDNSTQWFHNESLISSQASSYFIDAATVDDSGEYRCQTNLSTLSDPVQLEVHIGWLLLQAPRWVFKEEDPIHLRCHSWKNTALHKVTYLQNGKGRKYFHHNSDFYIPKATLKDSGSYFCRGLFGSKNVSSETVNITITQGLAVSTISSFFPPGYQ

B1: GpH7-A5/GpH7-B3 variant N325_03V/GpL16-k0 (antibody, human IgG1, kappa)
heavy 1: not shown
heavy 2: not shown
light: DIVMTQSPLSLPVTPGEPASISCQASESLVHSNRNTYLHWYLQKPGQSPQLLIYKVSNRFSGVPDRFSGSGSGTDFTLKISRVEAEDVGVYYCSQNTHVPPTFGQGTKVEIERTVAAPSVFIFPPSDEQLKSGTASVVCLLNNFYPREAKVQWKVDNALQSGNSQESVTEQDSKDSTYSLSSTLTLSKADYEKHKVYACEVTHQGLSSPVTKSFNRGEC
notes: mutation in the GpH7-B3 chain only; also called He Ab
As to B1, the He/Con_3a with FcγRIIIa was 30.3 % of GpH7-A5/GpH7-B3/GpL16-k0. Also, the He/Con_2b in the experiment with FcγRIIb is 111 % of GpH7-A5/GpH7-B3/GpL16-k0.

B2: GpH7-A5/GpH7-B3 variant P331_04F/GpL16-k0 (antibody, human IgG1, kappa)
heavy 1: not shown
heavy 2: not shown
light: DIVMTQSPLSLPVTPGEPASISCQASESLVHSNRNTYLHWYLQKPGQSPQLLIYKVSNRFSGVPDRFSGSGSGTDFTLKISRVEAEDVGVYYCSQNTHVPPTFGQGTKVEIERTVAAPSVFIFPPSDEQLKSGTASVVCLLNNFYPREAKVQWKVDNALQSGNSQESVTEQDSKDSTYSLSSTLTLSKADYEKHKVYACEVTHQGLSSPVTKSFNRGEC
notes: as for B1
Turning to B2, the He/Con_3a with FcγRIIIa is 77.3 % of GpH7-A5/GpH7-B3/GpL16-k0. In addition, the He/Con_2b with FcγRIIb is 110 % of GpH7-A5/GpH7-B3/GpL16-k0.

B3: GpH7-A5/GpH7-B3 variant N325_06M/GpL16-k0 (antibody, human IgG1, kappa)
heavy 1: not shown
heavy 2: not shown
light: DIVMTQSPLSLPVTPGEPASISCQASESLVHSNRNTYLHWYLQKPGQSPQLLIYKVSNRFSGVPDRFSGSGSGTDFTLKISRVEAEDVGVYYCSQNTHVPPTFGQGTKVEIERTVAAPSVFIFPPSDEQLKSGTASVVCLLNNFYPREAKVQWKVDNALQSGNSQESVTEQDSKDSTYSLSSTLTLSKADYEKHKVYACEVTHQGLSSPVTKSFNRGEC
notes: as for B1
Turning to B3, the He/Con_3a with FcγRIIIa is 31.4 % of GpH7-A5/GpH7-B3/GpL16-k0. The He/Con_2b in the experiment with FcγRIIb was 217 % of GpH7-A5/GpH7-B3/GpL16-k0.

B4: GpH7-A5/GpH7-B3 variant N325_04F/GpL16-k0 (antibody, human IgG1, kappa)
heavy 1: not shown
heavy 2: not shown
light: DIVMTQSPLSLPVTPGEPASISCQASESLVHSNRNTYLHWYLQKPGQSPQLLIYKVSNRFSGVPDRFSGSGSGTDFTLKISRVEAEDVGVYYCSQNTHVPPTFGQGTKVEIERTVAAPSVFIFPPSDEQLKSGTASVVCLLNNFYPREAKVQWKVDNALQSGNSQESVTEQDSKDSTYSLSSTLTLSKADYEKHKVYACEVTHQGLSSPVTKSFNRGEC
notes: as for B1
Regarding B4, the He/Con_3a with FcγRIIIa is 20.7 % of GpH7-A5/GpH7-B3/GpL16-k0. Moreover, in the experiment with FcγRIIb, the He/Con_2b is 143 % of GpH7-A5/GpH7-B3/GpL16-k0.

B5: GpH7-A5/GpH7-B3 variant N325_07I/GpL16-k0 (antibody, human IgG1, kappa)
heavy 1: not shown
heavy 2: not shown
light: DIVMTQSPLSLPVTPGEPASISCQASESLVHSNRNTYLHWYLQKPGQSPQLLIYKVSNRFSGVPDRFSGSGSGTDFTLKISRVEAEDVGVYYCSQNTHVPPTFGQGTKVEIERTVAAPSVFIFPPSDEQLKSGTASVVCLLNNFYPREAKVQWKVDNALQSGNSQESVTEQDSKDSTYSLSSTLTLSKADYEKHKVYACEVTHQGLSSPVTKSFNRGEC
notes: as for B1
For the molecule B5, in the experiment with FcγRIIIa, the He/Con_3a is 28.7 % of GpH7-A5/GpH7-B3/GpL16-k0. The He/Con_2b in the experiment with FcγRIIb was 171 % of GpH7-A5/GpH7-B3/GpL16-k0.

B6: GpH7-A5/GpH7-B3 variant P331_07I/GpL16-k0 (antibody, human IgG1, kappa)
heavy 1: not shown
heavy 2: not shown
light: DIVMTQSPLSLPVTPGEPASISCQASESLVHSNRNTYLHWYLQKPGQSPQLLIYKVSNRFSGVPDRFSGSGSGTDFTLKISRVEAEDVGVYYCSQNTHVPPTFGQGTKVEIERTVAAPSVFIFPPSDEQLKSGTASVVCLLNNFYPREAKVQWKVDNALQSGNSQESVTEQDSKDSTYSLSSTLTLSKADYEKHKVYACEVTHQGLSSPVTKSFNRGEC
notes: as for B1
For B6, in the experiment with FcγRIIIa, the He/Con_3a is 66 % of GpH7-A5/GpH7-B3/GpL16-k0. The He/Con_2b with FcγRIIb was 114 % of GpH7-A5/GpH7-B3/GpL16-k0.

B7: GpH7-A5/GpH7-B3 variant P331_15Y/GpL16-k0 (antibody, human IgG1, kappa)
heavy 1: not shown
heavy 2: not shown
light: DIVMTQSPLSLPVTPGEPASISCQASESLVHSNRNTYLHWYLQKPGQSPQLLIYKVSNRFSGVPDRFSGSGSGTDFTLKISRVEAEDVGVYYCSQNTHVPPTFGQGTKVEIERTVAAPSVFIFPPSDEQLKSGTASVVCLLNNFYPREAKVQWKVDNALQSGNSQESVTEQDSKDSTYSLSSTLTLSKADYEKHKVYACEVTHQGLSSPVTKSFNRGEC
notes: as for B1
For B7, the He/Con_3a with FcγRIIIa was 81.9 % of GpH7-A5/GpH7-B3/GpL16-k0. Moreover, the He/Con_2b with FcγRIIb is 114 % of GpH7-A5/GpH7-B3/GpL16-k0.

B8: GpH7-A5/GpH7-B3 variant N325_09D/GpL16-k0 (antibody, human IgG1, kappa)
heavy 1: not shown
heavy 2: not shown
light: DIVMTQSPLSLPVTPGEPASISCQASESLVHSNRNTYLHWYLQKPGQSPQLLIYKVSNRFSGVPDRFSGSGSGTDFTLKISRVEAEDVGVYYCSQNTHVPPTFGQGTKVEIERTVAAPSVFIFPPSDEQLKSGTASVVCLLNNFYPREAKVQWKVDNALQSGNSQESVTEQDSKDSTYSLSSTLTLSKADYEKHKVYACEVTHQGLSSPVTKSFNRGEC
notes: as for B1
Turning to B8, the He/Con_3a in the experiment with FcγRIIIa is 48 % of GpH7-A5/GpH7-B3/GpL16-k0. For the same molecule, in the experiment with FcγRIIb, the He/Con_2b is 124 % of GpH7-A5/GpH7-B3/GpL16-k0.

B9: GpH7-A5/GpH7-B3 variant P331_06M/GpL16-k0 (antibody, human IgG1, kappa)
heavy 1: not shown
heavy 2: not shown
light: DIVMTQSPLSLPVTPGEPASISCQASESLVHSNRNTYLHWYLQKPGQSPQLLIYKVSNRFSGVPDRFSGSGSGTDFTLKISRVEAEDVGVYYCSQNTHVPPTFGQGTKVEIERTVAAPSVFIFPPSDEQLKSGTASVVCLLNNFYPREAKVQWKVDNALQSGNSQESVTEQDSKDSTYSLSSTLTLSKADYEKHKVYACEVTHQGLSSPVTKSFNRGEC
notes: as for B1
For B9, the He/Con_3a with FcγRIIIa is 74.8 % of GpH7-A5/GpH7-B3/GpL16-k0. Also, the He/Con_2b with FcγRIIb is 102 % of GpH7-A5/GpH7-B3/GpL16-k0.

B10: GpH7-A5/GpH7-B3 variant P331_03V/GpL16-k0 (antibody, human IgG1, kappa)
heavy 1: not shown
heavy 2: not shown
light: DIVMTQSPLSLPVTPGEPASISCQASESLVHSNRNTYLHWYLQKPGQSPQLLIYKVSNRFSGVPDRFSGSGSGTDFTLKISRVEAEDVGVYYCSQNTHVPPTFGQGTKVEIERTVAAPSVFIFPPSDEQLKSGTASVVCLLNNFYPREAKVQWKVDNALQSGNSQESVTEQDSKDSTYSLSSTLTLSKADYEKHKVYACEVTHQGLSSPVTKSFNRGEC
notes: as for B1
Regarding B10, the He/Con_3a with FcγRIIIa is 73.2 % of GpH7-A5/GpH7-B3/GpL16-k0. Besides, the He/Con_2b with FcγRIIb is 119 % of GpH7-A5/GpH7-B3/GpL16-k0.

B11: GpH7-A5/GpH7-B3 variant N325_20W/GpL16-k0 (antibody, human IgG1, kappa)
heavy 1: not shown
heavy 2: not shown
light: DIVMTQSPLSLPVTPGEPASISCQASESLVHSNRNTYLHWYLQKPGQSPQLLIYKVSNRFSGVPDRFSGSGSGTDFTLKISRVEAEDVGVYYCSQNTHVPPTFGQGTKVEIERTVAAPSVFIFPPSDEQLKSGTASVVCLLNNFYPREAKVQWKVDNALQSGNSQESVTEQDSKDSTYSLSSTLTLSKADYEKHKVYACEVTHQGLSSPVTKSFNRGEC
notes: as for B1
For B11, the He/Con_3a with FcγRIIIa was 32.8 % of GpH7-A5/GpH7-B3/GpL16-k0. In addition, the He/Con_2b with FcγRIIb was 169 % of GpH7-A5/GpH7-B3/GpL16-k0.

B12: GpH7-A5/GpH7-B3 variant P331_10E/GpL16-k0 (antibody, human IgG1, kappa)
heavy 1: not shown
heavy 2: not shown
light: DIVMTQSPLSLPVTPGEPASISCQASESLVHSNRNTYLHWYLQKPGQSPQLLIYKVSNRFSGVPDRFSGSGSGTDFTLKISRVEAEDVGVYYCSQNTHVPPTFGQGTKVEIERTVAAPSVFIFPPSDEQLKSGTASVVCLLNNFYPREAKVQWKVDNALQSGNSQESVTEQDSKDSTYSLSSTLTLSKADYEKHKVYACEVTHQGLSSPVTKSFNRGEC
notes: as for B1
On to B12, for which, in the experiment with FcγRIIIa, the He/Con_3a was 75.1 % of GpH7-A5/GpH7-B3/GpL16-k0. Moreover, the He/Con_2b with FcγRIIb was 116 % of GpH7-A5/GpH7-B3/GpL16-k0.

B13: GpH7-A5/GpH7-B3 variant N325_08L/GpL16-k0 (antibody, human IgG1, kappa)
heavy 1: not shown
heavy 2: not shown
light: DIVMTQSPLSLPVTPGEPASISCQASESLVHSNRNTYLHWYLQKPGQSPQLLIYKVSNRFSGVPDRFSGSGSGTDFTLKISRVEAEDVGVYYCSQNTHVPPTFGQGTKVEIERTVAAPSVFIFPPSDEQLKSGTASVVCLLNNFYPREAKVQWKVDNALQSGNSQESVTEQDSKDSTYSLSSTLTLSKADYEKHKVYACEVTHQGLSSPVTKSFNRGEC
notes: as for B1
For the molecule B13, the He/Con_3a with FcγRIIIa was 33.3 % of GpH7-A5/GpH7-B3/GpL16-k0. In the experiment with FcγRIIb, the He/Con_2b is 197 % of GpH7-A5/GpH7-B3/GpL16-k0.

B14: GpH7-A5/GpH7-B3 variant N325_13S/GpL16-k0 (antibody, human IgG1, kappa)
heavy 1: not shown
heavy 2: not shown
light: DIVMTQSPLSLPVTPGEPASISCQASESLVHSNRNTYLHWYLQKPGQSPQLLIYKVSNRFSGVPDRFSGSGSGTDFTLKISRVEAEDVGVYYCSQNTHVPPTFGQGTKVEIERTVAAPSVFIFPPSDEQLKSGTASVVCLLNNFYPREAKVQWKVDNALQSGNSQESVTEQDSKDSTYSLSSTLTLSKADYEKHKVYACEVTHQGLSSPVTKSFNRGEC
notes: as for B1
Take B14: in the experiment with FcγRIIIa, the He/Con_3a was 65.1 % of GpH7-A5/GpH7-B3/GpL16-k0. The He/Con_2b with FcγRIIb is 177 % of GpH7-A5/GpH7-B3/GpL16-k0.
